Reference: patent US20130089497A1 (Genentech, published 2013)

B1: chimeric anti-human FcRH5 antibody 7D11 (antibody, human IgG1, kappa)
heavy: not shown
light: DILLTQSPAILSVSPGERVSFSCRSSQSIGTNIHWYQQRTNGSPRLLIKFASESLSGIPSRFSGSGSGTDFTLSINSVESEDFADYYCQQSNSWPLTFGAGTKVEIKRTVAAPSVFIFPPSDEQLKSGTASVVCLLNNFYPREAKVQWKVDNALQSGNSQESVTEQDSKDSTYSLSSTLTLSKADYEKHKVYACEVTHQGLSSPVTKSFNRGEC
notes: Mouse/human chimeric IgG1 kappa expressed in 293 cells; also called ch7D11; Ch anti-FcRH5 (7D11)
B2: chimeric anti-human FcRH5 antibody 13G9 (antibody, human IgG1, kappa)
heavy: not shown
light: DIVMTQSQKIMSTSVGDRVNVTCKASQNVGSNVAWYHQKPGQSPKALIYSASYRYSGVPDRFTGSGSGTDFTLTISNVQSEDLAEYFCQQYKTWTFGGGTKLEIKRTVAAPSVFIFPPSDEQLKSGTASVVCLLNNFYPREAKVQWKVDNALQSGNSQESVTEQDSKDSTYSLSSTLTLSKADYEKHKVYACEVTHQGLSSPVTKSFNRGEC
notes: Expressed in 293 cells; also called ch13G9; chMAFcRH5 (13G9)

What was measured:
[1] = target: T1, gD tagged human FcRH2 on SVT2 cells (human, UniProt Q96LA5 20-508); test: FACS, SVT2.MSCV.gD.FcRH2 cells, PE mu anti-human IgG
T1 construct: whole, on cells; also called huFcRH2; not shown: gD tag; the construct for this FcRH is not described
T1 sequence (looked up): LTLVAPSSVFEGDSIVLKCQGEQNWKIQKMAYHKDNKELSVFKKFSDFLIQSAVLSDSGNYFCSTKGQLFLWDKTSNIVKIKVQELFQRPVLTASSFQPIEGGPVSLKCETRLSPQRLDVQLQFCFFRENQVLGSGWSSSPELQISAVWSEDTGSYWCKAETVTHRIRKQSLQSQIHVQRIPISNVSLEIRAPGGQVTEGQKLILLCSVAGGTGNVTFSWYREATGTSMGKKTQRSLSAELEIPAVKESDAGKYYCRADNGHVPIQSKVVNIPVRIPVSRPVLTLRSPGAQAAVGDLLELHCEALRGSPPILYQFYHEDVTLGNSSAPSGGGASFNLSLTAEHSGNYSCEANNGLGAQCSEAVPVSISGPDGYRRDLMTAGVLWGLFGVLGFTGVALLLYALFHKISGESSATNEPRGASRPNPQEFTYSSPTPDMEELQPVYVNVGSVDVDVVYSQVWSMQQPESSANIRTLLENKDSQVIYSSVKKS

[2] = target: T2, gD tagged human FcRH4 on SVT2 cells (human, UniProt Q96PJ5 20-515); test: FACS, SVT2.MSCV.gD.FcRH4 cells, PE mu anti-human IgG
T2 construct: whole, on cells; also called huFcRH4; IRTA1; not shown: gD tag; the construct for this FcRH is not described
T2 sequence (looked up): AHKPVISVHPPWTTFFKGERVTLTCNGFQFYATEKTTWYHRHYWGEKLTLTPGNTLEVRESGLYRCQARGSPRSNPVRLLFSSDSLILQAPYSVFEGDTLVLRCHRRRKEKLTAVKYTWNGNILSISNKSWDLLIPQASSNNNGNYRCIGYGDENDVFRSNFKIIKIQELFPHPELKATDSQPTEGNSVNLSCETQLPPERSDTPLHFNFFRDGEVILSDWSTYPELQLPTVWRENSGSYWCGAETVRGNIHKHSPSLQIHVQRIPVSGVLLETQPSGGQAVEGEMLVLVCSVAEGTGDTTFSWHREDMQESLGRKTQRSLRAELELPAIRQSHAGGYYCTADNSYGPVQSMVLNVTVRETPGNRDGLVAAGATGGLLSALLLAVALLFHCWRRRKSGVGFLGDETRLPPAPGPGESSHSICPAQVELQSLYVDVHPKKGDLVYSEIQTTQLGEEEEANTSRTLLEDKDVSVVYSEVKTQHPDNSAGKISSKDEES

[3] = target: T3, gD tagged human FcRH3 on SVT2 cells (human, UniProt Q96P31 18-734); test: FACS, SVT2.MSCV.gD.FcRH3 cells, PE mu anti-human IgG
T3 construct: whole, on cells; also called huFcRH3; not shown: gD tag; the construct for this FcRH is not described
T3 sequence (looked up): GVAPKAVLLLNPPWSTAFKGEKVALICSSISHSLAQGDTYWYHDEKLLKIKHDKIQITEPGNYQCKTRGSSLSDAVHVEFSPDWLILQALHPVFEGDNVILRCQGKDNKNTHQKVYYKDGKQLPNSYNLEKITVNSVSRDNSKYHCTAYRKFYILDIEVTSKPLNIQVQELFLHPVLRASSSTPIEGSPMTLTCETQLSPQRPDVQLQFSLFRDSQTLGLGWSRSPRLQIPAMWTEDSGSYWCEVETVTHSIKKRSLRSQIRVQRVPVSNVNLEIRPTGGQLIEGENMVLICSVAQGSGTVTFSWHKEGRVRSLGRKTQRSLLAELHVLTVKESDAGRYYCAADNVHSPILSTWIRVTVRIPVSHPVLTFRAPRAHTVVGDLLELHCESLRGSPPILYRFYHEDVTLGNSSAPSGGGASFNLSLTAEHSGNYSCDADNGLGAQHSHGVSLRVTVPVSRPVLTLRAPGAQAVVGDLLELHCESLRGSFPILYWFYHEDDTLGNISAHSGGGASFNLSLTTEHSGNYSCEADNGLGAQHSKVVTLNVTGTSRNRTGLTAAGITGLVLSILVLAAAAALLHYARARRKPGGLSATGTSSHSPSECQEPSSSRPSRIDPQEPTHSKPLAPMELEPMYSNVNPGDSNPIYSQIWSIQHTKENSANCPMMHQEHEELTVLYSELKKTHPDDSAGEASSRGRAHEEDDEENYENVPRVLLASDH

[4] = target: T4, gD tagged human FcRH6 on SVT2 cells (human, UniProt Q6DN72 20-434); test: FACS, SVT2.MSCV.gD.FcRH6 cells, PE mu anti-human IgG
T4 construct: whole, on cells; also called huFcRH6; not shown: gD tag; the construct for this FcRH is not described
T4 sequence (looked up): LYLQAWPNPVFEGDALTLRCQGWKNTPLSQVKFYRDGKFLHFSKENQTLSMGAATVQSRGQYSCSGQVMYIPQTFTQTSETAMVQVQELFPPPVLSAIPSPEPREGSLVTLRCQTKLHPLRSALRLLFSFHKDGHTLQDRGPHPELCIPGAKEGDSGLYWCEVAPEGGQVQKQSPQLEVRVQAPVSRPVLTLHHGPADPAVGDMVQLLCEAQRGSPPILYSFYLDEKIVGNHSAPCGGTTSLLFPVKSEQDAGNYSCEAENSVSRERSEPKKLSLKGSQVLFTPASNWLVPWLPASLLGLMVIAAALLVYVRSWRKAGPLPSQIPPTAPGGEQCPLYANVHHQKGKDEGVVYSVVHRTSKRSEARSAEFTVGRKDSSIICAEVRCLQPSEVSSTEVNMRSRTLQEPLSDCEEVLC

[5] = target: T5, gD tagged human FcRH1 on SVT2 cells (human, UniProt Q96LA6 17-429); test: FACS, SVT2.MSCV.gD.FcRH1 cells, PE mu anti-human IgG
T5 construct: whole, on cells; also called huFcRH1; not shown: gD tag
T5 sequence (looked up): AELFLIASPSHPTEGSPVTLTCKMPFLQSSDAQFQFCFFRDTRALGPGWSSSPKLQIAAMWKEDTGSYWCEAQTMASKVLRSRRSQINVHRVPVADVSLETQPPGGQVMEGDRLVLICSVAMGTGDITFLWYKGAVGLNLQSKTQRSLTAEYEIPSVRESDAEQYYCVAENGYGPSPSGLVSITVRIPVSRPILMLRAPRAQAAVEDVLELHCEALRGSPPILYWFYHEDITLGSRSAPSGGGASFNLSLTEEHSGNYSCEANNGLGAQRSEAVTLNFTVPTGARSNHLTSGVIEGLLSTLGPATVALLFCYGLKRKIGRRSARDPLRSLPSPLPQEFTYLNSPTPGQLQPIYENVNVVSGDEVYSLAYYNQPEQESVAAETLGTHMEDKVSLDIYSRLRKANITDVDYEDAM

[6] = target: T6, cynomolgus FcRH5 on stably transfected SVT2 cells (cynomologous monkey); test: Scatchard analysis: 0.5 nM 125I-labeled antibody competed with the unlabeled antibody (50 to 0.02 nM) on SVT2.cyFcRH5 cells, 4 h at 4 C; St. Error 0.091
T6 construct: also called cyno FcRH5; cynoFcRH5
T6 chain: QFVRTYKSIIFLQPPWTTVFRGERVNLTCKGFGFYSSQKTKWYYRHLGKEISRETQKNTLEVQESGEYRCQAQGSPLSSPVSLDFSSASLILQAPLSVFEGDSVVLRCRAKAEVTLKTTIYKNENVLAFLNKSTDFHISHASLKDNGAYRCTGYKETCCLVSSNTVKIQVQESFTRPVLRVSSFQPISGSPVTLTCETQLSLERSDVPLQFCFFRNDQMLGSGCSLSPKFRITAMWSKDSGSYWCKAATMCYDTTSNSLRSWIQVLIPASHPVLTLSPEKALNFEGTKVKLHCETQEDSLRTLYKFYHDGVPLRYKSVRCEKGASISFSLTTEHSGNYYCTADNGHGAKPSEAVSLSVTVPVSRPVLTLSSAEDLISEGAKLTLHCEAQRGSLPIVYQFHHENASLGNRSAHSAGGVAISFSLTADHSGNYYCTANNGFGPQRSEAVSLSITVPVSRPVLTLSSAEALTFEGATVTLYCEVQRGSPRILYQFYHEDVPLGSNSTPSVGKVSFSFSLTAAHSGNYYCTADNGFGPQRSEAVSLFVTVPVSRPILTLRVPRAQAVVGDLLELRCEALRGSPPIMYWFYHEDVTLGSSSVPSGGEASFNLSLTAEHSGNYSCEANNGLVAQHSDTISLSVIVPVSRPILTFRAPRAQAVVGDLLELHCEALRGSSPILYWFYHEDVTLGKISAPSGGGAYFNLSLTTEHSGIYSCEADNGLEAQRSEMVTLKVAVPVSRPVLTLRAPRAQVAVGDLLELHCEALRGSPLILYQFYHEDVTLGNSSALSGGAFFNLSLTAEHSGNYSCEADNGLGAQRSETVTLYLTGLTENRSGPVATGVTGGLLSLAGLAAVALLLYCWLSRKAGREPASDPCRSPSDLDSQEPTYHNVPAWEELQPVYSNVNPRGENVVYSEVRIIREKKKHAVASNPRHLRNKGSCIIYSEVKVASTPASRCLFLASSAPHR
Description: To further determine binding of the FcRH5 murine antibodies and IgG clones, binding of iodinated IgG variants to OPM2 cells expressing human FcRH5 and SVT2 cells expressing cynomologous FcRH5, Scatchard analysis was performed (Table 9A).
For Scatchard analysis, 0.5 nM I¹²⁵ labeled murine or IgG clone anti-FcRH5 was competed against unlabeled murine or IgG clone anti-FcRH5, respectively, ranging from 50 to 0.02 nM (12 step 1:2 serial dilution) in the presence of a transfected OPM2 line stably expressing human-FcRH5 and a transfected SVT2 line stably expressing cynomologous-FcRH5. After a four hour incubation at 4° C., cells were washed and cell pellet counts were read by a gamma counter (1470 WIZARD Automatic Gamma Counter; Perkin Elmer, Walthem, Mass.). All points were done in triplicate and counted for 10 minutes. The average CPM was used for Kd calculation using the New Ligand (Genentech, South San Francisco, Calif.) program.

Binder | binding result [1] | binding result [2] | binding result [3] | binding result [4] | binding result [5] | Kd [6]
B1 | no binding (tested: 1.0 ug per about 10^6 cells (p-1120)) | no binding (tested: 1.0 ug per about 10^6 cells (p-1120)) | no binding (tested: 1.0 ug per about 10^6 cells (p-1120)) | no binding (tested: 1.0 ug per about 10^6 cells (p-1120)) | no binding (tested: 1.0 ug per about 10^6 cells (p-1120)) | 
B2 |  |  |  |  |  | 1.08 nM
